Measured values from patent US20090074780A1 (ESBATECH AN ALCON BIOMEDICAL RESEARCH UNIT, published 2009).

Key:
[1] = target: antigen of ESBA105 (not named in the examples) (UniProt P01375); assay: assay not described
[2] = target: T1, antigen of ESBA105 (not named in the examples) (UniProt P01375 77-233, limits assumed); assay: assay not described
[3] = target: T1, antigen of ESBA105 (not named in the …); assay: assay not described; reference itself

antigen of ESBA105 (not named in the examples) (UniProt P01375), sequence (P01375 77-233 limits assumed): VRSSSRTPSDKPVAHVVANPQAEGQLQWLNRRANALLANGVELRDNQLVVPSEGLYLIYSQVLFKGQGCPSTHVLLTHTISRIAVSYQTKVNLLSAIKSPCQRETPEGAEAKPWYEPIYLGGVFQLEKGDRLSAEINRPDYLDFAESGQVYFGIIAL
T1 sequence (P01375 77-233 limits assumed): as above

ESBA105 VH V103T (scFv) was tested, and the Activity relative to ESBA105 (relative to ESBA105) [1] was 1.2.

ESBA105_VL V3Q (scFv) was tested, and the Binding Activity (relative to parental ESBA105) (relative to parental ESBA105) [1] was 1.2.

B1: ESBA105_QC15.2 (scFv, V domains shown)
VH: QVQLVQSGAEVKKPGASVKVSCTASGYTFTHYGMNWVRQAPGRGLEWMGWINTYTGEPTYADKFKDRITFSLETSASTVYMELTSLTSDDTAVYYCARERGDAMDYWGQGTLVTVSS
VL: DIVMTQSPSSLSASVGDRVTLTCTASQSVSNDVVWYQQRPGKAPKLLIYSAFNRYTGVPSRFSGRGYGTDFTLTISSLQPEDVAVYYCQQDYNSPRTFGQGTKLEVK
For B1, the “Binding Activity (relative to parental ESBA105)” value [2] was 1 relative to parental ESBA105.

B2: ESBA105 (scFv)
chain: MADIVMTQSPSSLSASVGDRVTLTCTASQSVSNDVVWYQQRPGKAPKLLIYSAFNRYTGVPSRFSGRGYGTDFTLTISSLQPEDVAVYYCQQDYNSPRTFGQGTKLEVKRGGGGSGGGGSGGGGSSGGGSQVQLVQSGAEVKKPGASVKVSCTASGYTFTHYGMNWVRQAPGKGLEWMGWINTYTGEPTYADKFKDRFTFSLETSASTVYMELTSLTSDDTAVYYCARERGDAMDYWGQGTLVTVSS
For B2, the “Activity relative to ESBA105” value [3] was 1 relative to ESBA105.
